Results reported in publication PMC2132719.

Biological target: NLS-HSA (SV-40 large T antigen NLS peptide coupled to human serum albumin) (human | SV-40) (UniProt P02768)
Experiment: pull-down

percent of the protein in the extract bound: < 1%
Substance: Xenopus Nup62 (natural protein)
